Assay results published in article PMC10481361, “Structural insight into G-protein chaperone-mediated maturation of a bacterial adenosylcobalamin-dependent mutase” (The Journal of Biological Chemistry, 2023).
Residue numbers refer to the chain shown, from its start. Names may count otherwise.

B1: Cupriavidus metallidurans isobutyryl-CoA mutase fused (IcmF), wild type (enzyme, UniProt Q1LRY0 1-1093, looked up)
chain: MTDLSDVSRTAAAKPPAVPGRGPANKVRFVTAASLFDGHDASINIMRRILQSQGCEVIHLGHNRSVQEVVTAALQEDVQGIAISSYQGGHVEYFKYMIDLLREHGGEHIQVFGGGGGVIVPDEIRELQAYGVARIYSPEDGQRMGLAGMITDMAQRCDIDLTRYAPTTLDTVVAGDRRALAQLITALENGKADPELVSALHAQAKAAAVPVLGITGTGGAGKSSLTDELIRRFRLDQDDALSIAVISIDPSRRKSGGALLGDRIRMNAINHPNIFMRSLATREAGSEISQALPDVIAACKAARFDLVIVETSGIGQGDAAIVPHVDLSLYVMTPEFGAASQLEKIDMLDFADFVAINKFDRKGAQDAWRDVAKQVQRNREQWHSRAEDMPVYGTQASRFNDDGVTMLYQGLVGALGARGMSLKPGTLPNLEGRISTGQNVIVPPARSRYLAELADTVRAYHRRVVAQSKLARERQQLRAAHDMLQGAGHESAALETLASERDVSLGAVERKLLAMWPQMQQAYSGDEYVVKIRDKEIRTGLISTTLSGTKIRKVVLPRFEDEGEILKWLMRENVPGSFPYTAGVFAFKREGEDPTRMFAGEGDAFRTNRRFKLVSEGMEAKRLSTAFDSVTLYGEDPHERPDIYGKVGNSGVSIATLEDMKVLYDGFDLTNPSTSVSMTINGPAPTILAMFMNTAIDQQIDRFRADNGRDPTADEEAKIRAWVLQNVRGTVQADILKEDQGQNTCIFSTEFSLKVMGDIQEYFVHHQVRNFYSVSISGYHIAEAGANPISQLAFTLANGFTYVEAYLARGMHIDDFAPNLSFFFSNGMDPEYSVLGRVARRIWAVTMRDKYGANDRSQKLKYHIQTSGRSLHAQEIDFNDIRTTLQALIAIYDNCNSLHTNAYDEAITTPTAESVRRALAIQLIINREWGVAKCENPNQGSFLIEELTDLVEEAVLQEFERIAERGGVLGAMETGYQRGKIQEESLYYEQLKHDGTLPIIGVNTFRNPNGDPTPQTLELARSSEDEKQSQLHRLTEFHGAHQADAEAMLARLRQAVIDNRNVFAVLMDAVRVCSLGQITHALFEVGGQYRRNM
notes: Isobutyryl-CoA mutase fused (IcmF) of Cupriavidus metallidurans; Resting state is a homodimer; dimers join through their G-protein domains into higher-order oligomers; The plasmid has a thrombin cleavage site after the His-tag; no cleavage is described; also called wt IcmF; cmIcmF; source: E. coli BL21 T7 Express, purified (Ni-NTA, MonoQ, SEC)
B2: Cupriavidus metallidurans isobutyryl-CoA mutase fused (IcmF), Q341A switch III variant (enzyme, UniProt Q1LRY0 1-1093, looked up)
chain: B1 chain with Q341A
notes: Isobutyryl-CoA mutase fused (IcmF) of Cupriavidus metallidurans with Q341A in the switch III region of the G-protein domain; also called Q341A IcmF; source: E. coli BL21 T7 Express, purified (Ni-NTA, MonoQ, SEC)

Assays:
[1] = target: T1, IcmF (isobutyryl-CoA mutase fused) (Cupriavidus metallidurans, UniProt Q1LRY0); experiment: negative stain EM of oligomers; type: binding; details: 500 μM GMPPNP; pH 8; with hydroxocobalamin or photolysed AdoCbl; weaker oligomerization agonist than GMPPCP
T1 construct: resting homodimer; oligomerizes with GTP/GMPPCP; modelled residues 22-1093
T1 sequence (Q1LRY0 1-1093): B1 chain

[2] = target: T2, IcmF (isobutyryl-CoA mutase fused) (Cupriavidus metallidurans, UniProt Q1LRY0, Q341A); experiment: cryo-EM, […] Å; type: binding; details: sample prepared with 500 μM GTP, 2 μM enzyme; GDP modelled at each nucleotide site of the G-protein domain; Mg2+ in chain A
T2 construct: resting homodimer; oligomerizes with GTP/GMPPCP; modelled residues 22-1093
T2 sequence (Q1LRY0 whole entry Q341A, the tested form may be a part): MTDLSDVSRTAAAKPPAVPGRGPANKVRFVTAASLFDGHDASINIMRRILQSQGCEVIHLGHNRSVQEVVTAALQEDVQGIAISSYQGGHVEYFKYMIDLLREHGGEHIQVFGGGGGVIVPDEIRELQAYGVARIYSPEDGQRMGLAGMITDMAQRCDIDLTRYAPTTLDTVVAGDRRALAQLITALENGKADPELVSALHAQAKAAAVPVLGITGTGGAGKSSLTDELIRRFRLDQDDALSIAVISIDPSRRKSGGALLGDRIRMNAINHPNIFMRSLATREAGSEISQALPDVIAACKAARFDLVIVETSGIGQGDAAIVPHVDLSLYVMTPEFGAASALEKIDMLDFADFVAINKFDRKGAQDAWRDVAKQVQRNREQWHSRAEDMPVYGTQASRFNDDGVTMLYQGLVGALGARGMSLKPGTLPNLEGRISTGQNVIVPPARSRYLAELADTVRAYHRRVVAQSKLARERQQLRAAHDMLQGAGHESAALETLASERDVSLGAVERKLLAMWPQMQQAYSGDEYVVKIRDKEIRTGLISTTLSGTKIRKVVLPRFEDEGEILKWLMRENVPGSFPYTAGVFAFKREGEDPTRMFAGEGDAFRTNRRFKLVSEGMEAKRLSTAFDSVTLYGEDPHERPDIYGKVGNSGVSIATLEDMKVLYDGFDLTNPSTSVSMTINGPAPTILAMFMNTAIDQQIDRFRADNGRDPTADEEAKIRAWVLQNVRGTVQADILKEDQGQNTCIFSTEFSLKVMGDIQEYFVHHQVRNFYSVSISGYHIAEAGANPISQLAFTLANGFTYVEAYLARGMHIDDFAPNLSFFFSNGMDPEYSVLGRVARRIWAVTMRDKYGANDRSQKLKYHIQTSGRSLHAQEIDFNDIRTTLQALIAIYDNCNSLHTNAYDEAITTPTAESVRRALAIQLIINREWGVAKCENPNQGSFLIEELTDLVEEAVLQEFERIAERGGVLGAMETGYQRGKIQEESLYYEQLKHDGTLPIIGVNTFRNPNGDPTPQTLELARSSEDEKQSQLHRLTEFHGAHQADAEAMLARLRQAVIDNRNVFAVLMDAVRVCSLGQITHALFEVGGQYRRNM

purified protein = substrate: Nc1nc2c(ncn2[C@@H]2O[C@H](COP(=O)(O)OP(=O)(O)OP(=O)(O)O)[C@@H](O)[C@H]2O)c(=O)[nH]1; experiment: purified protein; type: biochemical, Cupriavidus metallidurans; details: GTPase, 0.5 μM enzyme, 23 °C, GTP 2–1500 μM
[3] = target: the molecule itself; experiment: negative stain EM; 20 ng/μl wt IcmF in 20 mM Hepes pH 8, 50 mM NaCl, no nucleotide or 500 μM GDP (30 min on ice); dimer seen, dimer with dimer not seen
[4] = target: the molecule itself; experiment: cryo-EM structure; 2 μM Q341A IcmF, 500 μM GTP in SEC buffer; 4.6 Å reconstruction, three protomers modelled

Molecule | negative stain EM of oligomers [1] | cryo-EM, 4.6 Å [2] | Km (purified protein) [µM] | Vmax (purified protein) [µM/min] | kcat (purified protein) [s⁻¹] | kcat/Km (purified protein) [M⁻¹ s⁻¹] | stoichiometry N [3] | binding result [4]
Nc1nc2c(ncn2[C@@H]2O[C@H](COP(=O)(O)OP(=O)(O)NP(=O)(O)O)[C@@H](O)[C@H]2O)c(=O)[nH]1 [GMPPNP] | Photolysis of AdoCbl leads to more supramolecular complex formation but not as many as in the GMPPNP + OHCbl | – | – | – | – | – | – | –
Nc1nc2c(ncn2[C@@H]2O[C@H](COP(=O)(O)OP(=O)(O)O)[C@@H](O)[C@H]2O)c(=O)[nH]1 [GDP] | – | there was clear density for GDP at each nucleotide-binding site | – | – | – | – | – | –
B1 | – | – | 2.4 ± 0.9 | 1.57 | 0.0522 ± 0.003 | 21700 | 2 | –
B2 | – | – | 2.2 ± 0.8 | 0.533 | 0.0178 ± 0.00117 | 8170 | – | binds
